IntAct's records for PubMed 31515488
One block for each substance: values may come before it.

Legend:
[1] = biological target: T1, efhc2_human EFHC2 (UniProt Q5JST6)
T1 sequence: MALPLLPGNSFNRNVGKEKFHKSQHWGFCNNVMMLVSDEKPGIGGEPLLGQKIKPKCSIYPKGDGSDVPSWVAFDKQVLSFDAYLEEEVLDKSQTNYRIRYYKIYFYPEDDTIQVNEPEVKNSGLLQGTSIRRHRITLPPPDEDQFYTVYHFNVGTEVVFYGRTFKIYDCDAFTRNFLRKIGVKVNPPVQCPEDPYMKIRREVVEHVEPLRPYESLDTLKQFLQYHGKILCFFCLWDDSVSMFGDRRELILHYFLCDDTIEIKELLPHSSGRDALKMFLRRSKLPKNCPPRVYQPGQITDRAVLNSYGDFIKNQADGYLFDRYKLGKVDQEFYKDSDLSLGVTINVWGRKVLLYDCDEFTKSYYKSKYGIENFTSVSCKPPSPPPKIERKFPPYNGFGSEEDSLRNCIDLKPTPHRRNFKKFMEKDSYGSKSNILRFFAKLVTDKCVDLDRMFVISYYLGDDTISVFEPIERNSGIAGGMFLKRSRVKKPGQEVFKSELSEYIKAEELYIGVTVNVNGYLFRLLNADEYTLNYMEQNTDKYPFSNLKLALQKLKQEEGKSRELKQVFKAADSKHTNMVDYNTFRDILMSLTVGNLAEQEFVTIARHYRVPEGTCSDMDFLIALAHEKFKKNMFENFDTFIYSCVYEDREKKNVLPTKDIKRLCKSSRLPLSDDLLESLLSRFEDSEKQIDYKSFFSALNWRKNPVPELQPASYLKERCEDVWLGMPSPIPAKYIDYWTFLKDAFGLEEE

[2] = biological target: dpyl2_human DPYSL2 (UniProt Q16555)
[3] = biological target: T2, dpyl5_human DPYSL5 (UniProt Q9BPU6)
T2 sequence: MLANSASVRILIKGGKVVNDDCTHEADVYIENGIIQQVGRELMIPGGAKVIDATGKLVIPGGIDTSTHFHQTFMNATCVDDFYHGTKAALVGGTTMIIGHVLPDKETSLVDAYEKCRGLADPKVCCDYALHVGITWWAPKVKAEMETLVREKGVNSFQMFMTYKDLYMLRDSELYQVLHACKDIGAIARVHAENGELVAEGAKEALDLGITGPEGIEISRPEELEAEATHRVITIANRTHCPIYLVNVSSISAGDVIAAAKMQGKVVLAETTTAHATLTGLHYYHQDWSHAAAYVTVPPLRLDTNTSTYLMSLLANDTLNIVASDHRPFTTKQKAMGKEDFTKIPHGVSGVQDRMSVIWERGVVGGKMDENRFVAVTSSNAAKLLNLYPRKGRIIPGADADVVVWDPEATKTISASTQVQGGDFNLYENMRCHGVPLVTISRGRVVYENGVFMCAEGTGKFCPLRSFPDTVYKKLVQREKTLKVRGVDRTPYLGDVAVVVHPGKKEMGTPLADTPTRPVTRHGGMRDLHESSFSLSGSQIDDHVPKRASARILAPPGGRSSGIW

[4] = biological target: dpyl3_human DPYSL3 (UniProt Q14195)
[5] = biological target: gors2_human GORASP2 (UniProt Q9H8Y8)
[6] = biological target: npal3_human NIPAL3 (UniProt Q6P499)
[7] = biological target: lerl1_human LEPROTL1 (UniProt O95214)
[8] = biological target: ck068_human C11orf68 (UniProt Q9H3H3)
[9] = biological target: lnx1_human LNX1 (UniProt Q8TBB1)
[10] = biological target: T3, dmc1_human DMC1 (UniProt Q14565)
T3 sequence: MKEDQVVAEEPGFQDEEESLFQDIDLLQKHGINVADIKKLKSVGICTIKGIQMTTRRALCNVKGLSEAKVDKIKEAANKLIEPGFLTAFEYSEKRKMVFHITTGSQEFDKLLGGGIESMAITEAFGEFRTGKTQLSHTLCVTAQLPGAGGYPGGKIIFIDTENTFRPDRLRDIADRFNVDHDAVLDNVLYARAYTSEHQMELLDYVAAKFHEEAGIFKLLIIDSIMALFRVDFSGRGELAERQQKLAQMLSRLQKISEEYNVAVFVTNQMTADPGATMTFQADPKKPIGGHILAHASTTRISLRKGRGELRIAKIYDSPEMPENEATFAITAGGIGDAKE

[11] = biological target: T4, acy3_human ACY3 (UniProt Q96HD9)
T4 sequence: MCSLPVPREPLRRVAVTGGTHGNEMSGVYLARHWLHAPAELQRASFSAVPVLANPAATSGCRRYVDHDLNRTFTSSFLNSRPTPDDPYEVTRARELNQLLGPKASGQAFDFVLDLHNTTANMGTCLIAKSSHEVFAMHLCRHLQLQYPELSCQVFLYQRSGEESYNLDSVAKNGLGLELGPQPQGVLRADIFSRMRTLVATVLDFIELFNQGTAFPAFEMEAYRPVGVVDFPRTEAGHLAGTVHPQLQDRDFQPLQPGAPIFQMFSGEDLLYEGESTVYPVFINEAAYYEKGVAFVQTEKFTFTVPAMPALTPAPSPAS

[12] = biological target: dpyl2_human DPYSL2 (UniProt Q16555); remark: listed apart in the source
[13] = biological target: ei2ba_human EIF2B1 (UniProt Q14232)
[14] = biological target: zmat1_human ZMAT1 (UniProt Q5H9K5)
[15] = biological target: phs_human PCBD1 (UniProt P61457)
[16] = biological target: cryaa_human CRYAA (UniProt P02489)
[17] = biological target: T5, prdx3_human PRDX3 (UniProt P30048)
T5 sequence: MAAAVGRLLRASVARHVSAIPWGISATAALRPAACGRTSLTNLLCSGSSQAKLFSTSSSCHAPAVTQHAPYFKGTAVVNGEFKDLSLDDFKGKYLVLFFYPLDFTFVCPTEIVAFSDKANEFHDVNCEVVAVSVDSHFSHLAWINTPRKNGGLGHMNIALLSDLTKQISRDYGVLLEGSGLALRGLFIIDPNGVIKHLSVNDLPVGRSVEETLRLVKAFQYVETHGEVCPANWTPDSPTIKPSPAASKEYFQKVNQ

[18] = biological target: nasp_human NASP (UniProt P49321)
[19] = biological target: bnip3_human BNIP3 (UniProt Q12983)
[20] = biological target: BCL2L13 (UniProt Q9BXK5)
[21] = biological target: T6, creb3_human CREB3 (UniProt O43889)
T6 sequence: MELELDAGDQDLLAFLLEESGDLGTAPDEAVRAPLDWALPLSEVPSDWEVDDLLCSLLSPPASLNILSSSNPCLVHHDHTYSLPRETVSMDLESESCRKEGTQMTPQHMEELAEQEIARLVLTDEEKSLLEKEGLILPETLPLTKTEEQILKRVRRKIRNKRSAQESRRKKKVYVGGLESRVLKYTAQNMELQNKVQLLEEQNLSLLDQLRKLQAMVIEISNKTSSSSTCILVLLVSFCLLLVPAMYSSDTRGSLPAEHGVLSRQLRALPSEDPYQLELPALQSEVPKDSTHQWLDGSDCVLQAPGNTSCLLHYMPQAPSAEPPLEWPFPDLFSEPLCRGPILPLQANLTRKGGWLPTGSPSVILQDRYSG

[22] = biological target: ppla_human PLN (UniProt P26678)
[23] = biological target: emp3_human EMP3 (UniProt P54852)
[24] = biological target: mal_human MAL (UniProt P21145)
[25] = biological target: vatl_human ATP6V0C (UniProt P27449)
[26] = biological target: zbt24_human ZBTB24 (UniProt O43167)
[27] = biological target: aakb2_human PRKAB2 (UniProt O43741)
[28] = biological target: T7, traf4_human TRAF4 (UniProt Q9BUZ4)
T7 sequence: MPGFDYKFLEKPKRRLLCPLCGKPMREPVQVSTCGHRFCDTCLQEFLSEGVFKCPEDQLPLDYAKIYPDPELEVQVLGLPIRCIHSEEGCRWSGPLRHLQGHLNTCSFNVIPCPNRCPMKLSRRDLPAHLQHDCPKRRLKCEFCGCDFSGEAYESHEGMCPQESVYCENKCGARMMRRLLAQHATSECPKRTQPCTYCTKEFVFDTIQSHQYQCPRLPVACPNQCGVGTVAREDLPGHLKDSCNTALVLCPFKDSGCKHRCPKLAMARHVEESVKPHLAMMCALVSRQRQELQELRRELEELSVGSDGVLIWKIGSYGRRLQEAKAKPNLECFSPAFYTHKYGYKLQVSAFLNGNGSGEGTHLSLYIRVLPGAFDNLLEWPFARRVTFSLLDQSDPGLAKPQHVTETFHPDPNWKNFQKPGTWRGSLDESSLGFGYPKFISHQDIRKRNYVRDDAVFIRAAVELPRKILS

[29] = biological target: pacn1_human PACSIN1 (UniProt Q9BY11)
[30] = biological target: pls1_human PLSCR1 (UniProt O15162)
[31] = biological target: trip6_human TRIP6 (UniProt Q15654)
[32] = biological target: cep70_human CEP70 (UniProt Q8NHQ1)
[33] = biological target: elmo1_human ELMO1 (UniProt Q92556)
[34] = biological target: zsc32_human ZSCAN32 (UniProt Q9NX65)
Sequence of zsc32_human ZSCAN32 (Q9NX65 whole entry): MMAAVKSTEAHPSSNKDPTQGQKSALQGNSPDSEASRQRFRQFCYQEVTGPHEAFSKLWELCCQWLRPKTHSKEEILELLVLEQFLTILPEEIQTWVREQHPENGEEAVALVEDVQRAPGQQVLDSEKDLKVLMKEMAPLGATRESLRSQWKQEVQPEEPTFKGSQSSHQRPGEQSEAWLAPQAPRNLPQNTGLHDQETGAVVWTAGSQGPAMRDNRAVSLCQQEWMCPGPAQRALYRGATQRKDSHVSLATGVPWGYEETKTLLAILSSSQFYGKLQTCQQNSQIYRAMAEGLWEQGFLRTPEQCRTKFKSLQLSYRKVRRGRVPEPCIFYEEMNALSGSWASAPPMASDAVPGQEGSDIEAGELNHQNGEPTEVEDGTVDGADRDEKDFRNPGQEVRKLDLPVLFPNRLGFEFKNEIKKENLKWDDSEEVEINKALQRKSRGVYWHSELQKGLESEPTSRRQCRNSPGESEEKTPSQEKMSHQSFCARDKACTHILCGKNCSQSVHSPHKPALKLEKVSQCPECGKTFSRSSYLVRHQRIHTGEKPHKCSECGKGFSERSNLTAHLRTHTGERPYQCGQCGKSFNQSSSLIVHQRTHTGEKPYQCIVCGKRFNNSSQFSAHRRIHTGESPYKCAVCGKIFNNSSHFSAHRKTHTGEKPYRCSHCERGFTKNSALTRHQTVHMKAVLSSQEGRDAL

Sequence of Isoform 1 of Ectodysplasin-A (Homo sapiens), Q92838-1 P118L (Q92838 whole entry P118L, canonical isoform): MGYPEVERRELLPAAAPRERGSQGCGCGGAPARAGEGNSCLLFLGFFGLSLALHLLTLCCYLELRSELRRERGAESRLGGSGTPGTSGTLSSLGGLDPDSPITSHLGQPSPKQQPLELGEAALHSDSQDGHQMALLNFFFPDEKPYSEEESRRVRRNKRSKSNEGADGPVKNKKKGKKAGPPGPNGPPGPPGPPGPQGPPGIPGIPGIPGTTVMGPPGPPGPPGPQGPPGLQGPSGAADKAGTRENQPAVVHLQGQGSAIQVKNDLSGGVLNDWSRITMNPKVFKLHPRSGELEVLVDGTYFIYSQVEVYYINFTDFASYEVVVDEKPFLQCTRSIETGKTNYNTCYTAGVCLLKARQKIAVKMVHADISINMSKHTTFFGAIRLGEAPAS
Sequence of Ectodysplasin-A (Homo sapiens), Q92838 R334H (Q92838 whole entry R334H): as the sequence (Q92838 whole entry P118L, canonical isoform) above, with L118P, R334H counted along it
Sequence of cep70_human CEP70 (Q8NHQ1 whole entry): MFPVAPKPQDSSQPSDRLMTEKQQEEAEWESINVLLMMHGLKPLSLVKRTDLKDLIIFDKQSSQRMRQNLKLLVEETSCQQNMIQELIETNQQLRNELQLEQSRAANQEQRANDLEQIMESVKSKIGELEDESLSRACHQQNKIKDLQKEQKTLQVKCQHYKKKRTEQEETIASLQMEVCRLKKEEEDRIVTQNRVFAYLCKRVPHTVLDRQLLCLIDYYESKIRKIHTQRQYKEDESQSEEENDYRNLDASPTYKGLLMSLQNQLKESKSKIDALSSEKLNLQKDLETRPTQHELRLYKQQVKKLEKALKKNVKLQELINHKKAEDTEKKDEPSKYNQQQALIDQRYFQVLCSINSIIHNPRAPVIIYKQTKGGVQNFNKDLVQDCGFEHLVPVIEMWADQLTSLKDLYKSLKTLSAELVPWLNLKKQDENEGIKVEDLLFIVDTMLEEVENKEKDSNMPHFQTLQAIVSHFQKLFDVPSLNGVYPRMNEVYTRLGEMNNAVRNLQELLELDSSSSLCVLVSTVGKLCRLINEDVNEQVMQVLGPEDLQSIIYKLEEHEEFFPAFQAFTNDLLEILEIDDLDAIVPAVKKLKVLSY
Sequence of emp3_human EMP3 (P54852 whole entry): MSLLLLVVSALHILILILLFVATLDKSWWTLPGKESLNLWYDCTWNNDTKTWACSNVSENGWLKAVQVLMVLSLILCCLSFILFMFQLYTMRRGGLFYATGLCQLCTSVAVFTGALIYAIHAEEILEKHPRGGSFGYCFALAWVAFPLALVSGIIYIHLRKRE
Sequence of BCL2L13 (Q9BXK5 whole entry): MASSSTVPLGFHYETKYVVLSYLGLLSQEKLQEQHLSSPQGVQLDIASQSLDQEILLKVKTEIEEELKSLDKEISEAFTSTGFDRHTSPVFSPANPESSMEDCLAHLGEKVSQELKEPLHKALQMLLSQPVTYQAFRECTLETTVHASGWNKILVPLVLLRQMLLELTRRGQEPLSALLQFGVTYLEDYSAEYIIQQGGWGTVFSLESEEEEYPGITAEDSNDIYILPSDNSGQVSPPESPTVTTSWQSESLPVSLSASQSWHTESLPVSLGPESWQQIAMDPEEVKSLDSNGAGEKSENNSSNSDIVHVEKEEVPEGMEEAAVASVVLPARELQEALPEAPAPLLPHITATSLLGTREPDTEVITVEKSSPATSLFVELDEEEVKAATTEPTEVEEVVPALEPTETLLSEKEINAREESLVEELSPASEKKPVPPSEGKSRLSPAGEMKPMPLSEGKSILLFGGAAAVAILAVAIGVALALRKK
Sequence of ei2ba_human EIF2B1 (Q14232 whole entry): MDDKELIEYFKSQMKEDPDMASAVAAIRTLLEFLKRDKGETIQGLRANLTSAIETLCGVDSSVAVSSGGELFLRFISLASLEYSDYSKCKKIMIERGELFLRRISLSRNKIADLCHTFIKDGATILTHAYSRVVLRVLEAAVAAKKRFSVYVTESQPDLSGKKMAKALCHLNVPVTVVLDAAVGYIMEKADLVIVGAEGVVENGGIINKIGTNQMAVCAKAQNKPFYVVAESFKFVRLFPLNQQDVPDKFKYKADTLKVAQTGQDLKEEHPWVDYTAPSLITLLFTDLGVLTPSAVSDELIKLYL
Sequence of cryaa_human CRYAA (P02489 whole entry): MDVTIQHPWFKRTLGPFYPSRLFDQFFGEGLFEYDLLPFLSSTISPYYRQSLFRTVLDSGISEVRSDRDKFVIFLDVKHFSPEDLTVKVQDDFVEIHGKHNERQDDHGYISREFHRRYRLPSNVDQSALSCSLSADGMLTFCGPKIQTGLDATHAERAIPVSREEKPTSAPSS
Sequence of mal_human MAL (P21145 whole entry): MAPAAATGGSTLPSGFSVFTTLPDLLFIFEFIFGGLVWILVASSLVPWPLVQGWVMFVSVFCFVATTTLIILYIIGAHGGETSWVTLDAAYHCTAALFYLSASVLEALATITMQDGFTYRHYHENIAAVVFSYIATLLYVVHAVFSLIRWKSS
Sequence of vatl_human ATP6V0C (P27449 whole entry): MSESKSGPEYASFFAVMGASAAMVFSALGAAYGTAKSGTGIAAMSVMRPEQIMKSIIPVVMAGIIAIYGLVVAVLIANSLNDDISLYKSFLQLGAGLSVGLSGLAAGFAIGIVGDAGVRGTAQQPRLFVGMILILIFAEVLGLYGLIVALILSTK
Sequence of pacn1_human PACSIN1 (Q9BY11 whole entry): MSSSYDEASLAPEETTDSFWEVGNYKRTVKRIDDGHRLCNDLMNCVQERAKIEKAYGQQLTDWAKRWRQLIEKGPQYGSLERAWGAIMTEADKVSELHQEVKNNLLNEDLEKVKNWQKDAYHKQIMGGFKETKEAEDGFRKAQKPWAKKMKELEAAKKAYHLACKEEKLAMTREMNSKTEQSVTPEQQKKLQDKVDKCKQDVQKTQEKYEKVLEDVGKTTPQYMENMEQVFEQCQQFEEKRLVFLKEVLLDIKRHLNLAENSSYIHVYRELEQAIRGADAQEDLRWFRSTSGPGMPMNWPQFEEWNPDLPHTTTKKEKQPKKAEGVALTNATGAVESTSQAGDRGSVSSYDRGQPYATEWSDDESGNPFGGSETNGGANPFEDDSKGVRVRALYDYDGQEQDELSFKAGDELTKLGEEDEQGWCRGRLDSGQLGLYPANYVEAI
Sequence of npal3_human NIPAL3 (Q6P499 whole entry): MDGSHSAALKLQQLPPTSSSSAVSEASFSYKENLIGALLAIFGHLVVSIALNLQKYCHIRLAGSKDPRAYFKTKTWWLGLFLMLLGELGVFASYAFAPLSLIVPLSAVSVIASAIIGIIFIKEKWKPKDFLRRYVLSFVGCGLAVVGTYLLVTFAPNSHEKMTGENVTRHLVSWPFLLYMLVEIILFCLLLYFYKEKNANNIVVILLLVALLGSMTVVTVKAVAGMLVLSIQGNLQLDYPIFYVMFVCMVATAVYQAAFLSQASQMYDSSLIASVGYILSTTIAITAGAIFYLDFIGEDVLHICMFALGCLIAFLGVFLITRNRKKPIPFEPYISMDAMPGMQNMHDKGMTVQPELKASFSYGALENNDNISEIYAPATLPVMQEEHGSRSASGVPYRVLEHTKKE
Sequence of phs_human PCBD1 (P61457 whole entry): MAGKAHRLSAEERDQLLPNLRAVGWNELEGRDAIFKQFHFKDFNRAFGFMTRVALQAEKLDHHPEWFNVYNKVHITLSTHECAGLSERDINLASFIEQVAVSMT
Sequence of nasp_human NASP (P49321 whole entry): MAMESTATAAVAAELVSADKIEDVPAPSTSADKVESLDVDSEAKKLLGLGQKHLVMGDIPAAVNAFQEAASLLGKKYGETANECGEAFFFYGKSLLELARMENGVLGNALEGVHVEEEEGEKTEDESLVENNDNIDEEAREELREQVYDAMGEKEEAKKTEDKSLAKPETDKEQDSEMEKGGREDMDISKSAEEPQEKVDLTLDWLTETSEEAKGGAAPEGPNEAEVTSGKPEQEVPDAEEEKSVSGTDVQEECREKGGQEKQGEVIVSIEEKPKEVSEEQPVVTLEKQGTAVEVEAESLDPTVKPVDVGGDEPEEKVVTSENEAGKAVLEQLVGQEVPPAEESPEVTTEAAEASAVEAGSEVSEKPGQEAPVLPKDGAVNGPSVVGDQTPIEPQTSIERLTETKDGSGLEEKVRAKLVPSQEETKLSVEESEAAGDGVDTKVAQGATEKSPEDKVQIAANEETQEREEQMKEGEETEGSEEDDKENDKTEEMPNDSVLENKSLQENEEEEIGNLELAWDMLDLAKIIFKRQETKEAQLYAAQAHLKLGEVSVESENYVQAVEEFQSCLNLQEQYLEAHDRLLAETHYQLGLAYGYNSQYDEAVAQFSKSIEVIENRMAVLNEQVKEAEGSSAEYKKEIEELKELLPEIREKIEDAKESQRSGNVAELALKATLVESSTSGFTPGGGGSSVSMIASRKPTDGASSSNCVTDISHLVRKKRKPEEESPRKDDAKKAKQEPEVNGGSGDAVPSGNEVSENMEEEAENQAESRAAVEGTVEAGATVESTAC

effect of a mutation on the interaction [1]: with no effect
Substance: Chloride intracellular channel protein 3 (Homo sapiens) (from UniProt O95833) M210L

effect of a mutation on the interaction [2]: disrupting interaction strength
effect of a mutation on the interaction [3]: with no effect
effect of a mutation on the interaction [4]: disrupting interaction strength
effect of a mutation on the interaction [5]: disrupting interaction strength
Substance: Dihydropyrimidinase-related protein 2 (Homo sapiens) (from UniProt Q16555-1) R481C

effect of a mutation on the interaction [8]: with no effect
effect of a mutation on the interaction [9]: with no effect
Substance: Eukaryotic translation initiation factor 4H (Homo sapiens), Q15056 G164V

effect of a mutation on the interaction [10]: with no effect
effect of a mutation on the interaction [11]: with no effect
effect of a mutation on the interaction [12]: with no effect
effect of a mutation on the interaction [13]: with no effect
effect of a mutation on the interaction [14]: with no effect
effect of a mutation on the interaction [15]: with no effect
effect of a mutation on the interaction [16]: with no effect
effect of a mutation on the interaction [17]: disrupting interaction strength
Substance: Golgi reassembly-stacking protein 2 (Homo sapiens) (from UniProt Q9H8Y8) S441C

effect of a mutation on the interaction [19]: with no effect
Substance: Integral membrane protein 2B (Homo sapiens) (from UniProt Q9Y287) I237T

effect of a mutation on the interaction [20]: with no effect
effect of a mutation on the interaction [21]: with no effect
Substance: Integral membrane protein 2B (Homo sapiens) (from UniProt Q9Y287) P31H

effect of a mutation on the interaction [29]: disrupting interaction strength
Substance: Protein kinase C and casein kinase substrate in neurons protein 3 (Homo sapiens) (from UniProt Q9UKS6) A61V

effect of a mutation on the interaction [30]: with no effect
Substance: Regulator of G-protein signaling 3 (Homo sapiens), P49796-4 R528Q

effect of a mutation on the interaction [31]: with no effect
Substance: Rho-related GTP-binding protein RhoQ (Homo sapiens), P17081 E68K

The next lines start with the substance.

Substance: Ectodysplasin-A (Homo sapiens), Q92838 R334H
effect of a mutation on the interaction [6]: with no effect
effect of a mutation on the interaction [7]: with no effect

Substance: Histone H3.3C (Homo sapiens) (from UniProt Q6NXT2) R53C
effect of a mutation on the interaction [18]: with no effect

Substance: Isoform 1 of Ectodysplasin-A (Homo sapiens), Q92838-1 P118L
effect of a mutation on the interaction [22]: with no effect
effect of a mutation on the interaction [23]: with no effect
effect of a mutation on the interaction [24]: with no effect
effect of a mutation on the interaction [25]: with no effect

Substance: Krueppel-like factor 15 (Homo sapiens), Q9UIH9 A199V
effect of a mutation on the interaction [26]: with no effect
effect of a mutation on the interaction [27]: with no effect

Substance: Large ribosomal subunit protein bL28m (Homo sapiens) (from UniProt Q13084) D160E
effect of a mutation on the interaction [28]: with no effect

Substance: Zinc finger protein 302 (Homo sapiens), Q9NR11 R391H
effect of a mutation on the interaction [32]: with no effect

Substance: Zinc finger protein 398 (Homo sapiens), Q8TD17 E87D
effect of a mutation on the interaction [33]: with no effect

Substance: Zinc finger protein with KRAB and SCAN domains 1 (Homo sapiens), P17029 R155K
effect of a mutation on the interaction [34]: with no effect
